19 molecules from patent US20240108738A1 (Bicycle, published 2024) can be followed below.

For the assay, the target named is T1, Human NKp46 Fc tag (Acro Biosystems, NC1-H5257) (human, UniProt O76036 22-255).
T1 construct: bought; also called Fc-tagged human NKp46
In words: SPR Method 1 and/or 2. Here is the method: The SPR analysis was run at 25° C. and a flow rate of 50 μl/min with 60 seconds association and 200-400 seconds dissociation time. Data were corrected for DMSO excluded volume effects. All data were double-referenced for blank injections and reference surface using standard processing procedures and data processing and kinetic fitting were performed using Scrubber software, version 2.0c (BioLogic Software). Data were fitted using simple 1:1 binding model allowing for mass transport effects where appropriate.
For analysis of peptide binding, a Biacore 8k+ instrument was used with a CM5 chip (Cytiva). All experiments were carried out at 25° C. Anti-human IgG (Fc) antibody (Cytiva) was immobilized on all flow cells by standard amine coupling chemistry. The running buffer was HBS-N(Cytiva, 10 mM HEPES, 0.15 M NaCl, pH 7.4) and the flow rate was 10 μL/min. The carboxymethyl dextran surface was activated with a 1:1 ratio of 0.4 M 1-ethyl-3-(3-dimethylaminopropyl) carbodiimide hydrochloride (EDC)/0.1 M N-hydroxy succinimide (NHS) (Cytiva) for 420s. […] Residual activated groups were blocked with a 420 s injection of 1 M ethanolamine (pH 8.5). The final surface density was 3000-5000 RU. Fc-tagged human NKp46 was diluted to 0.1 μM in HBS-N and was captured on flow cell 2 only of the sensor chip at a flow rate of 10 μL/min to 500-1000 RU. The buffer was then changed to PBS-P+(Cytiva) supplemented with 2% DMSO. […] The flow rate was 50 μL/min with 60 s association and 400 s dissociation. Data were corrected for DMSO volume exclusion effects. All data were double-referenced against blank injections and reference surface response using standard processing procedures. Data processing and kinetic fitting was performed using Biacore Insight Evaluation Software with Extended Screening and Characterization Extension (Cytiva). Data were fitted using steady state affinity 1:1 binding model to determine KD. Data were fitted using kinetic 1:1 binding model to determine kinetic constants where appropriate.

Numbered stars: 1 amine (or outer) side, 2 acyl side, 3 side chain; on linkers, the order of the positions; unused ones are H or OH. Bridge positions count the residues as written; N and C are the ends. Square brackets hold non-standard residues; d marks the D form. Ends that are not written are not given here. * marks the point of attachment. TATA = O=C(CC[*:1])N1CN(C(=O)CC[*:2])CN(C(=O)CC[*:3])C1; Ala(4-thiazolyl) = N[C@@H](Cc1cscn1)C(=O)O; 1Nal = N[C@@H](Cc1cccc2ccccc12)C(=O)O; 2Pal = N[C@@H](Cc1ccccn1)C(=O)O; Cba = N[C@@H](CC1CCC1)C(=O)O; Pent4ynoyl = C#CCCC(=O)*

T1 sequence (O76036 22-255 limits assumed): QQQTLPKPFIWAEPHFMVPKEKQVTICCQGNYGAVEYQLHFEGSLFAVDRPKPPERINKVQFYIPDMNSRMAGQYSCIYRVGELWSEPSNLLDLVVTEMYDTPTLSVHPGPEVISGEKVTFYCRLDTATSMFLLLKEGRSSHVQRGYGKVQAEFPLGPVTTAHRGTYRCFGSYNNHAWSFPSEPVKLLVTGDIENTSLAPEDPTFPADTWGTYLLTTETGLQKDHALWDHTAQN

B1: BCY16837 (peptide)
peptide: ACYLPK(Pent4ynoyl)YLCGDEYCA-NH2
modifications: linker 2-9-14 via TATA; N-terminus assumed
SMILES: C#CCCC(=O)NCCCC[C@@H]1NC(=O)[C@@H]2CCCN2C(=O)[C@H](CC(C)C)NC(=O)[C@H](Cc2ccc(O)cc2)NC(=O)[C@@H](NC(=O)[C@H](C)N)CSCCC(=O)N2CN3CN(C2)C(=O)CCSC[C@@H](C(=O)N[C@@H](C)C(N)=O)NC(=O)[C@H](Cc2ccc(O)cc2)NC(=O)[C@H](CCC(=O)O)NC(=O)[C@H](CC(=O)O)NC(=O)CNC(=O)[C@H](CSCCC3=O)NC(=O)[C@H](CC(C)C)NC(=O)[C@H](Cc2ccc(O)cc2)NC1=O
notes: scaffold TATA
B1: the Kd amounted to 42 nM.

B2: BCY16842 (peptide)
peptide: ACYLPDYLCGDK(Pent4ynoyl)YCA-NH2
modifications: linker 2-9-14 via TATA; N-terminus assumed
SMILES: C#CCCC(=O)NCCCC[C@@H]1NC(=O)[C@H](CC(=O)O)NC(=O)CNC(=O)[C@@H]2CSCCC(=O)N3CN(CN(C3)C(=O)CCSC[C@@H](C(=O)N[C@@H](C)C(N)=O)NC(=O)[C@H](Cc3ccc(O)cc3)NC1=O)C(=O)CCSC[C@H](NC(=O)[C@H](C)N)C(=O)N[C@@H](Cc1ccc(O)cc1)C(=O)N[C@@H](CC(C)C)C(=O)N1CCC[C@H]1C(=O)N[C@@H](CC(=O)O)C(=O)N[C@@H](Cc1ccc(O)cc1)C(=O)N[C@@H](CC(C)C)C(=O)N2
notes: scaffold TATA
B2 gave a Kd of 2470 nM.

B3: BCY18287 (peptide)
peptide: ACDLTTHNCQ[1Nal]GICA-NH2
modifications: linker 2-9-14 via TATA; N-terminus assumed
SMILES: CC[C@H](C)[C@@H]1NC(=O)CNC(=O)[C@H](Cc2cccc3ccccc23)NC(=O)[C@H](CCC(N)=O)NC(=O)[C@@H]2CSCCC(=O)N3CN(CN(C3)C(=O)CCSC[C@@H](C(=O)N[C@@H](C)C(N)=O)NC1=O)C(=O)CCSC[C@H](NC(=O)[C@H](C)N)C(=O)N[C@@H](CC(=O)O)C(=O)N[C@@H](CC(C)C)C(=O)N[C@@H]([C@@H](C)O)C(=O)N[C@@H]([C@@H](C)O)C(=O)N[C@@H](Cc1c[nH]cn1)C(=O)N[C@@H](CC(N)=O)C(=O)N2
notes: scaffold TATA
Molecule B3 displayed a dissociation constant (Kd) of 637 nM.

B4: BCY17662 (peptide)
peptide: ACYLPDYLC[dK](Pent4ynoyl)DEYCA-NH2
modifications: linker 2-9-14 via TATA; N-terminus assumed
SMILES: C#CCCC(=O)NCCCC[C@H]1NC(=O)[C@@H]2CSCCC(=O)N3CN(CN(C3)C(=O)CCSC[C@@H](C(=O)N[C@@H](C)C(N)=O)NC(=O)[C@H](Cc3ccc(O)cc3)NC(=O)[C@H](CCC(=O)O)NC(=O)[C@H](CC(=O)O)NC1=O)C(=O)CCSC[C@H](NC(=O)[C@H](C)N)C(=O)N[C@@H](Cc1ccc(O)cc1)C(=O)N[C@@H](CC(C)C)C(=O)N1CCC[C@H]1C(=O)N[C@@H](CC(=O)O)C(=O)N[C@@H](Cc1ccc(O)cc1)C(=O)N[C@@H](CC(C)C)C(=O)N2
notes: scaffold TATA
In turn, B4 had a Kd of 8.1 nM.

B5: BCY18004 (peptide)
peptide: ACNLQNPCMKFPCAK(Pent4ynoyl)-NH2
modifications: linker 2-8-13 via TATA (inferred)
notes: scaffold TATA
For the molecule B5, the Kd was 414 nM.

B6: BCY18281 (peptide)
peptide: ACDLTT[His1Me]NCQWGICA-NH2
modifications: linker 2-9-14 via TATA; not fully specified
notes: scaffold TATA
Regarding B6, the Kd came out at 424 nM.

B7: BCY18286 (peptide)
peptide: ACDLTTHNC[Cba]WGICA-NH2
modifications: linker 2-9-14 via TATA
notes: scaffold TATA
Regarding B7, the Kd was determined as 1230 nM. Against the preceding molecule, the Kd is about 2.9-fold higher.

B8: BCY18279 (peptide)
peptide: ACDLTT[His3Me]NCQWGICA-NH2
modifications: linker 2-9-14 via TATA; not fully specified
notes: scaffold TATA
Regarding B8, binding was put at a Kd of 599 nM.

B9: BCY15107 (peptide)
peptide: ACDLTTHNCQWGICA-NH2
modifications: linker 2-9-14 via TATA; also: scaffold TATA, TATB or TBMT
notes: scaffold TATA
The molecule B9 returned a Kd of 396 nM.

B10: BCY18278 (peptide)
peptide: ACDLTLHNCQWGICA-NH2
modifications: linker 2-9-14 via TATA; also: scaffold TATA, TATB or TBMT
notes: scaffold TATA
In turn, B10 yielded a Kd of 335 nM.

B11: BCY18273 (peptide)
peptide: ACNLTTHNCQWGICA-NH2
modifications: linker 2-9-14 via TATA; also: scaffold TATA, TATB or TBMT
notes: scaffold TATA
For B11, binding was characterised by a dissociation constant (Kd) of 326 nM.

B12: BCY18292 (peptide)
peptide: ACDLTTHNCQW[dA]ICA-NH2
modifications: linker 2-9-14 via TATA; N-terminus assumed
SMILES: CC[C@H](C)[C@@H]1NC(=O)[C@@H](C)NC(=O)[C@H](Cc2c[nH]c3ccccc23)NC(=O)[C@H](CCC(N)=O)NC(=O)[C@@H]2CSCCC(=O)N3CN(CN(C3)C(=O)CCSC[C@@H](C(=O)N[C@@H](C)C(N)=O)NC1=O)C(=O)CCSC[C@H](NC(=O)[C@H](C)N)C(=O)N[C@@H](CC(=O)O)C(=O)N[C@@H](CC(C)C)C(=O)N[C@@H]([C@@H](C)O)C(=O)N[C@@H]([C@@H](C)O)C(=O)N[C@@H](Cc1c[nH]cn1)C(=O)N[C@@H](CC(N)=O)C(=O)N2
notes: scaffold TATA
As to B12, binding was characterised by a dissociation constant (Kd) of 1460 nM.

B13: BCY18260 (peptide)
peptide: Ac-CDLTTHNCQWGIC-NH2
modifications: linker 1-8-13 via TATA
notes: scaffold TATA
For the molecule B13, the affinity, expressed as Kd, was 1240 nM.

B14: BCY18280 (peptide)
peptide: ACDLTT[2Pal]NCQWGICA-NH2
modifications: linker 2-9-14 via TATA; N-terminus assumed
SMILES: CC[C@H](C)[C@@H]1NC(=O)CNC(=O)[C@H](Cc2c[nH]c3ccccc23)NC(=O)[C@H](CCC(N)=O)NC(=O)[C@@H]2CSCCC(=O)N3CN(CN(C3)C(=O)CCSC[C@@H](C(=O)N[C@@H](C)C(N)=O)NC1=O)C(=O)CCSC[C@H](NC(=O)[C@H](C)N)C(=O)N[C@@H](CC(=O)O)C(=O)N[C@@H](CC(C)C)C(=O)N[C@@H]([C@@H](C)O)C(=O)N[C@@H]([C@@H](C)O)C(=O)N[C@@H](Cc1ccccn1)C(=O)N[C@@H](CC(N)=O)C(=O)N2
notes: scaffold TATA
In turn, B14 returned a dissociation constant (Kd) of 1270 nM.

B15: BCY18282 (peptide)
peptide: ACDLTT[Ala(4-thiazolyl)]NCQWGICA-NH2
modifications: linker 2-9-14 via TATA; N-terminus assumed
SMILES: CC[C@H](C)[C@@H]1NC(=O)CNC(=O)[C@H](Cc2c[nH]c3ccccc23)NC(=O)[C@H](CCC(N)=O)NC(=O)[C@@H]2CSCCC(=O)N3CN(CN(C3)C(=O)CCSC[C@@H](C(=O)N[C@@H](C)C(N)=O)NC1=O)C(=O)CCSC[C@H](NC(=O)[C@H](C)N)C(=O)N[C@@H](CC(=O)O)C(=O)N[C@@H](CC(C)C)C(=O)N[C@@H]([C@@H](C)O)C(=O)N[C@@H]([C@@H](C)O)C(=O)N[C@@H](Cc1cscn1)C(=O)N[C@@H](CC(N)=O)C(=O)N2
notes: scaffold TATA
B15 displayed a Kd of 661 nM. This Kd is about 1.9-fold lower than that of the molecule before.

B16: BCY16840 (peptide)
peptide: ACYLPDYLCK(Pent4ynoyl)DEYCA-NH2
modifications: linker 2-9-14 via TATA; N-terminus assumed
SMILES: C#CCCC(=O)NCCCC[C@@H]1NC(=O)[C@@H]2CSCCC(=O)N3CN(CN(C3)C(=O)CCSC[C@@H](C(=O)N[C@@H](C)C(N)=O)NC(=O)[C@H](Cc3ccc(O)cc3)NC(=O)[C@H](CCC(=O)O)NC(=O)[C@H](CC(=O)O)NC1=O)C(=O)CCSC[C@H](NC(=O)[C@H](C)N)C(=O)N[C@@H](Cc1ccc(O)cc1)C(=O)N[C@@H](CC(C)C)C(=O)N1CCC[C@H]1C(=O)N[C@@H](CC(=O)O)C(=O)N[C@@H](Cc1ccc(O)cc1)C(=O)N[C@@H](CC(C)C)C(=O)N2
notes: scaffold TATA
With B16, binding was characterised by a dissociation constant (Kd) of 60 nM.

B17: BCY18261 (peptide)
peptide: Ac-ACDLTTHNCQWGICA-NH2
modifications: linker 2-9-14 via TATA
notes: scaffold TATA
For the molecule B17, the Kd turned out to be 543 nM.

B18: BCY18005 (peptide)
peptide: ACLLHDHCPNTHPKLCAK(Pent4ynoyl)-NH2
modifications: linker 2-8-16 via TATA (inferred)
notes: scaffold TATA
Molecule B18 registered a Kd of 729 nM. This Kd and that of the molecule before are within 1.5-fold of each other.

B19: BCY16843 (peptide)
peptide: ACYLPDYLCGDEK(Pent4ynoyl)CA-NH2
modifications: linker 2-9-14 via TATA; N-terminus assumed
SMILES: C#CCCC(=O)NCCCC[C@@H]1NC(=O)[C@H](CCC(=O)O)NC(=O)[C@H](CC(=O)O)NC(=O)CNC(=O)[C@@H]2CSCCC(=O)N3CN(CN(C3)C(=O)CCSC[C@@H](C(=O)N[C@@H](C)C(N)=O)NC1=O)C(=O)CCSC[C@H](NC(=O)[C@H](C)N)C(=O)N[C@@H](Cc1ccc(O)cc1)C(=O)N[C@@H](CC(C)C)C(=O)N1CCC[C@H]1C(=O)N[C@@H](CC(=O)O)C(=O)N[C@@H](Cc1ccc(O)cc1)C(=O)N[C@@H](CC(C)C)C(=O)N2
notes: scaffold TATA
As for B19, the Kd amounted to 3010 nM.
